Data as given in patent publication US20220073643A1 (NANJING GENSCRIPT BIOTECH, published 2022).

Target: human Claudin18.2 (human)
Assay: cell-based or functional assay

Binder	CDC % Relative activity	CDC EC50
232D7C8 (antibody, V domains shown) VH: QAYLQQSGAELVRSGASVKMSCKASGYTFTSHNMHWVKQTPGQGLEWIGYIYPGNGGTNYNQKFKGKATLTADTSSSTAYMQISSLTSEDSAVYFCARDYFGNSFAYWGQGTLVTVSA VL: DILMTQSPSSLTATAGEKVSMSCKSSQSLFNSGNQRNYLTWYQQRPGQPPKLLIYWASTRESGVPDRFTGSGSGTDFTLTISSVQAEDLAVYYCQNDYRYPFTFGAGTKLELK	88.9%	1.46 µg/mL
234E1F12 (antibody, V domains shown) VH: QAYLQQSGAELVRSGASVKMSCKASGYTFTSHNMHWVKQTPRQGLEWIGYIYPGNGDTNYNQKFKGKATLTADTSSSTAYMQISSLTSEDSAVYFCTRDYYGNSFAYWGQGTLVTVSA VL: DIVMTQSPSSLTEKAGERVSMSCKSSQSLFNSGNQKNYLTWYQQKPGQPPKLLIYWASTRESGVPDRFTGSGSGTDFTLTISSVQAEDLAVYYCQNAYWYPFTFGAGTKLELK	126%	1.1 µg/mL
240A8E7 (antibody, V domains shown) VH: QAYLQQSGAELVRSGASVKMSCKASGYTFTNYNIHWVKQTPGQGLEWIGYIYPGNGDNYYNQKFKGKATLTADTSSSTAYMQISSLTSEDSAVYFCARDYYGNSFAYWGQGTLVTVSA VL: DVVMTQSPSSLTVTAGEKVTMNCKSSQSLLNSGNQKNYLTWYQQKPGQPPKMLIYWASTRESGVPDRFTGSGSGTDFTLTISSVQAEDLAIYYCQNDYYYPFTFGAGTKLELK	120%	1.16 µg/mL
241H10A1 (antibody, V domains shown) VH: QVQLQQSGAELVKPGASVKLSCKASGYTFTSFGINWLRQRPEQGLEWIGWIFPGDGNSKYNENFKGKATLTTDKSSSTAYMQVTRLTSEDSAVYFCARFYYGNSFANWGQGTLVTVSA VL: DIVMTQSPSSLTVTAGEKVTMSCKSSQSLLNSGNQKNYLTWYQQKPGQPPKLLIYWAATRESGVPDRFTGSGSGTDFTLTISSVQAEDLAVYYCQNDYFYPFTFGGGTKLELK	625%	0.225 µg/mL
233D5E5 (antibody, V domains shown) VH: QAYLQQSGAELVRSGASVKMSCKASGYTFTSHNMHWVKQTPRQGLEWIGYIYPGNGDTNYNQKFKGKATLTADTSSSTAYMQISSLTSEDSAVYFCTRDYYGNSFAYWGQGTLVTVSA VL: DIVMTQSPSSLTEKAGERVSMSCKSSQSLFNSGNQKNYLTWYQQKPGQPPKLLIYWASTRESGVPDRFTGSGSGTDFTLTISSVQAEDLAVYYCQNAYWYPFTFGAGTKLELK	87.3%	1.49 µg/mL
243B4F2 (antibody, V domains shown) VH: QAYLQQSGAELVRSGASVKMSCKASGYTFTSHNLHWVKQTPGQGLEWIGYIYPGNGNTNYNQKFKGKATLTADTSSSTAYMQISSLTSEDSAVYFCTRDYYGNSFAYWGQGTLVTVSA VL: DIVMTQSPSSLTEKAGERVSMSCKSSQSLFNSGNQKNYLTWYQQKPGQPPKLLIYWASTRESGVPDRFTGSGSGTDFTLTISSVQAEDLAVYYCQNNYWFPFTFGAGTKLELK	134%	1.05 µg/mL
243B4F7 (antibody, V domains shown) VH: QAYLQQSGAELVRSGASVKMSCKASGYTFTSHNLHWVKQTPGQGLEWIGYIYPGNGNTNYNQKFKGKATLTADTSSSTAYMQISSLTSEDSAVYFCTRDYYGNSFAYWGQGTLVTVSA VL: DIVMTQSPSSLTEKAGERVSMSCKSSQSLFNSGNQKNYLTWYQQKPGQPPKLLIYWASTRESGVPDRFTGSGSGTDFTLTISSVQAEDLAVYYCQNNYWFPFTFGAGTKLELK	149%	0.941 µg/mL
235A10C9 (antibody, V domains shown) VH: QAYLQQSGAELVRSGASVKMSCKASGYTFASHNMHWVKQTPGQGLEWIGYIYPGNSGTKYNQKFTGKATLTADTSSSTAYMQITSLTSEDSAVYFCARDYYGNSFAYWGQGTLVTVSA VL: DIVMTQSPSSLTEKAGEKVSMRCKSSQSLLNSGNQKNYLTWYQQKPGQPPKLLIYWASTRESGVPDRFTGSGSGTDFTLTISSVQADDLAVYYCQNDYMFPFTFGAGTKLELK	137%	1.01 µg/mL
240F8G2 (antibody, V domains shown) VH: QAYLQQSGAELVRSGASVKMSCKASGYTFTNYNIHWVKQTPGQGLEWIGYIYPGNGGNYYNQKFKGKATLTADTSSSTAYMQISSLTSEDSAVYFCARDYYGNSFAYWGQGTLVTVSA VL: DIVVTQSPSSLTVTAGEKVTMNCKSSQSLLNSGNQKNYLTWYQQKPGQPPKLLIYWASTRESGVPDRFTGSGSGTDFTLTISSVQAEDLAIYYCQNDYYYPLTFGAGTKLELK	126%	1.1 µg/mL
237D2A4 (antibody, V domains shown) VH: QVQLKESGPGLVAPSQSLSITCTVSGFSLTSYGVSWVRQPPGKGLEWLGVIWGDGSTNYHSTLISRLRISKDKSKSQVFLKLNSLQTDDTATYYCAKAGRGNALDYWGQGTSVTVSS VL: DIVMTQSPSSLTVTAGEKVTMSCKSSQSLLNSGNQKNYLTWYQQKPGQPPKLLIYWASTRESGVPDRFTGSGSGTDFTLTISSVQAEDLAVYYCQNDYSFPLTFGAGTKLELK	629%	0.221 µg/mL
234B9D4 (antibody, V domains shown) VH: EIQLQQSGPDLMKPGSSVKISCTASGYSFTSYYIHWVKQSHGKTLEWIGYIDPFNGGTRYNQKFEGKAALTVDKSSTTAYMHLTSLTSDDSAVYYCASLRFFTYWGQGTLVTVSA VL: DIVMTQSPSSLTVTAGEKVTMTCKSSQSLLNSGNQENYLTWYQQKPGQPPKLLISRASTRQSGVPDRFTGSGSGTDFTLTISSVQAEDLAVYYCQNDYSYPLTFGAGTKLELK	485%	0.287 µg/mL
232F1E4 (antibody, V domains shown) VH: QVQLKESGPGLVAPSQSLSITCTVSGFALTTYGVSWVRQPPGKGLEWLGVIWGDGSTHYHSALISRLSIRKDNSKSQVFLKLNSLQTDDTATYYCAKPGRGNAMDYWGQGTSVTVSS VL: DIVMSQSPSSLTVTAGEKVTMSCKSSQSLLNSGNQKNYLTWYQQKPGQSPKLLIYWASTRESGVPDRFTGSGSGTDFTLTISSMQAEDLAVYYCQNDYIYPLTFGAGTMLELK	74.9%	1.74 µg/mL
186F7E10 (antibody, V domains shown) VH: EVMLVESGGGLVKPGGSLKLSCAASRFTLNSYAMSWIRQTPEKKLEWVATITSGVSHTYYFDSVKGRFTISRDTAKNTLNLQMNSLRSEDTAVYYCARLYYGNSLDYWGQGTSVTVSS VL: DIVMTQSPSSLTVTAGEKVTVSCKSSQSLLNSGNQKNYLTWYQQKPGQPPKLLIYWASTRESGVPDRFTGSGSGTDFTLTISSVQSEDLAVYYCQNNYIYPLTFGAGTTLELK	124%	1.27 µg/mL

The next lines start with the values.

CDC % Relative activity	CDC EC50	Binder
175%	0.794 µg/mL	234C9G5 (antibody, V domains shown) VH: QAYLQQSGAELVRSGASVKMSCKASGYAFTSHNMHWVKQTPGQGLEWIGYISPGNGYTNYNQKFRGKATLTADTSSSTAYMQIGSLTSEDSAVYFCTRDYYGNSFAYWGQGTLVTVSA VL: DIVMTQSPSSLTEKAGERVSMSCKSSQSLFNSGNQKNYLTWYQQKPGQPPKLLIYWASTRESGVPDRFTGSGSGTDFTLTISSVQAEDLAVYYCQNNYWFPFTFGAGTKLELK
62%	2.1 µg/mL	234A10F7 (antibody, V domains shown) VH: QVQLQQSGAELVKPGASVKLSCKASGYTFTSFGINWLRQRPEQGLEWIGWIFPGDGNSKYNENFKGKATLTTDKSSSTAYMQLTRLTSEDSAVYFCARFYYGNSFAYWGQGTLVTVSA VL: DIVMTQSPSSLTVTTGQKVTMSCKSSQSLLNSGNQKNYLTWYQQKPGQPPKLLIYWAATRESGVPDRFTGSGSGTDFTLTISSVQAEDLAVYYCQNDYFYPFTFGAGTKLELK
119%	1.17 µg/mL	240D6F5 (antibody, V domains shown) VH: QAYLQQSGAELVRSGASVKMSCKASGYTFTSHNMHWVKQTPGQGLEWIGYIYPGNGGTNYNQKFKGKATLTADPSSSTAYMQINSLTSEDSAVYFCTRDYYGNSFAYWGQGTLVTVSA VL: DIVMTQSPSSLTEKAGERVSMSCKSSQSLFNSGNQKNYLTWYQQKPGQPPKLLIYWASTRESGVPDRFTGSGSGTDFTLTISSVQAEDLAVYYCQNDYRYPFTFGAGTKLELK
112%	1.26 µg/mL	242H12D6 (antibody, V domains shown) VH: QAYLQQSGAELVRSGASVKMSCKASGYTFTSHNMHWVKQTPGQGLEWIGYIYPGNGGTNYNQKFKGKATLTADTSSSTAYMQINSLTSEDSAVYFCTRDYYGNSFAYWGQGTLVTVSA VL: DIVMTQSPSSLTEKAGERVSMSCKSSQSLFNSGNQKNYLTWYQQKPGQPPKLLIYWASTRESGVPDRFTGSGSGTDFTLTISSVQAEDLAVYYCQNDYRYPFTFGAGTKLELK
102%	1.36 µg/mL	239H12G9 (antibody, V domains shown) VH: QAYLQQSGAELVRSGASVKMSCKASGYTFTSHNIHWVKQTPGQGLEWIGYIYPGNGAPNYNQKFRGKATLTADTSSSTAYMQISSLTSEDSAVYFCARDYYGNSFVYWGQGTLVTVSA VL: DIVMTQSPSSLTEKAGEKVSMSCKSSQSLLNSGNQKNYLTWYQQKPGQPPKLLIYWASTRESGVPDRFTGSGSGTDFTLTISSVQAEDLAVYYCQNDYRYPFTFGAGTKLELK
149%	0.944 µg/mL	242F5H2 (antibody, V domains shown) VH: EVMLVESGGGLVKPGGSLKLSCAASGFTFSSYTVSWVRQTPEKRLEWVATSIVGSTYTYFPDSVKGRFTISRDFAKNTLFLQMSSLRSEDTAMYYCSRLGRGNAMDYWGQGTSVSVSS VL: DIVMTQSPSSLTVTAGEKVTLNCRSSQSLLNSGNQKNYLTWYQQKPGQPPKLLIYWASTRESGVPDRFTGSGSGTDFTLTISSVQADDLAVYYCQNGYSYPFTFGSGTKLEIK
543%	0.291 µg/mL	185F2G12 (antibody, V domains shown) VH: QAYLQQSGAELVRSGASVKMSCKASGYTFTSYNMHWVRQTPGQGLEWIGYIYPGNGGTNYSQKFKGKASLTADTSSTTAYMQISSLTSEDSAVYFCATGRGFAYWGQGTLVTVSA VL: DIVMTQSPSSLTVTAGEKVTLSCKSSQSLFNTGNQKNYLTWYQQKPGQPPKLLIFRASTRESGVPDRFTGSGFGTDFTLTISSVQAEDLAVYYCQNDFSYPLTFGAGTKLELK
